Source: US20110039770A1 (PHARMAGAP, published 2011)
Read-outs that look alike come from different tables or passages of the source.

Columns and labels:
PKC-α = PKC-α (UniProt P17252 1-672, limits assumed); assay: cell-based or functional assay
PKC-βI = PKC-βI (UniProt P05771-1 1-671, limits assumed); assay: cell-based or functional assay
PKC-ε = target: T1, PKC-ε (UniProt Q02156 1-737); assay: cell-based or functional assay
T1 sequence (looked up): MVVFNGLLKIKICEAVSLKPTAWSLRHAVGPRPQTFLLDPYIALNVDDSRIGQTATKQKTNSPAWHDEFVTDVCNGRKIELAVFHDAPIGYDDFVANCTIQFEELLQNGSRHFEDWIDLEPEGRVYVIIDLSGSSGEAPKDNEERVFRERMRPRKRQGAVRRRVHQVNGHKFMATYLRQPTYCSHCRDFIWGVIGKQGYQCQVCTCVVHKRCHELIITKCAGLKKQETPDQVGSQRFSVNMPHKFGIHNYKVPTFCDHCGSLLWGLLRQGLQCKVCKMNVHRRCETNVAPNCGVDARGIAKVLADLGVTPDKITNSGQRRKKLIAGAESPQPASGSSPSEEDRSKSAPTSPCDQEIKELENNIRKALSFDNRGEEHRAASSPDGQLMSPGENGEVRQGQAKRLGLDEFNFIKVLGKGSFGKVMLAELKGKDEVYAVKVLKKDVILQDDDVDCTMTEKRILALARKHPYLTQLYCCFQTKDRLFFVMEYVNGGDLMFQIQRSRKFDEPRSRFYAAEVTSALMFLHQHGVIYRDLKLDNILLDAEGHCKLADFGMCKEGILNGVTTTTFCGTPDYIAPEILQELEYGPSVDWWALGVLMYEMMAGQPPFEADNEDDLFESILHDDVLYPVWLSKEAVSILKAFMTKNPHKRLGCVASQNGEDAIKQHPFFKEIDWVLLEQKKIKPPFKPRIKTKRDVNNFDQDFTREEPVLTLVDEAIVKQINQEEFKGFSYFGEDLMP

PKC-ε, purified isoform [1] = target: T2, PKC-ε, purified isoform (UniProt Q02156 1-737); assay: competition ELISA on coated purified PKC-ε vs anti-PKC ε antibody; PRE 50 µM
T2 construct: also called PKC-epsilon; epsilon
T2 sequence (looked up): T1 sequence (looked up)

PKC-ε, purified isoform [2] = target: T2, PKC-ε, purified isoform; assay: competition ELISA on coated purified PKC-ε vs anti-PKC ε antibody; PRE 100 µM
PKC-ε, purified isoform [3] = target: T2, PKC-ε, purified isoform; assay: competition ELISA on coated purified PKC-ε vs anti-PKC ε antibody; PRE 200 µM
[4] = target: T3, PKC-ι in extracts of human cell lines (human, UniProt P41743 2-596); assay: Western-blot competition, cell extracts: PRE at 10X/20X the anti-PKC iota primary antibody concentration competes with that antibody; band densitometry (lower band = PRE bound)
T3 construct: Denatured on the Western blot membrane; also called PKC-iota (cell extract)
T3 sequence (looked up): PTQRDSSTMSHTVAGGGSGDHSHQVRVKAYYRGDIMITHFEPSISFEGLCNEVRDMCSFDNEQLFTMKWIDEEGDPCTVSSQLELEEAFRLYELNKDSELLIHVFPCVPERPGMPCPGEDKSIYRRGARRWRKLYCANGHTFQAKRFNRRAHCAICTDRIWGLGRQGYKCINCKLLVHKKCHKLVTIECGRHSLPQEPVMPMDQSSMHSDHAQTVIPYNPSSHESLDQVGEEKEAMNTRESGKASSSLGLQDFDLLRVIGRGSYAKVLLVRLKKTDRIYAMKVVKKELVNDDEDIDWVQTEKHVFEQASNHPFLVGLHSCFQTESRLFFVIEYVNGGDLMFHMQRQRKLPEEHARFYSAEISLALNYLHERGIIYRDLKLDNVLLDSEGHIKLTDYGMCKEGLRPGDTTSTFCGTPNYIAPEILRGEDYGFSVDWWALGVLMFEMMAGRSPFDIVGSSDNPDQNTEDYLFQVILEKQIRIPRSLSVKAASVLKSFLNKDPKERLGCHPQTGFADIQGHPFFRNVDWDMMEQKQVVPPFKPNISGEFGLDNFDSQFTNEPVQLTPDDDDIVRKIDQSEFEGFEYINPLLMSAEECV

[5] = target: T4, PKC-βII, purified isoform (UniProt P05771-2 1-673); assay: purified isoform competition ELISA, summary grade
T4 construct: also called PKC-beta II; beta 2
T4 sequence (P05771 other isoform, or with tags, fused parts or gaps limits assumed): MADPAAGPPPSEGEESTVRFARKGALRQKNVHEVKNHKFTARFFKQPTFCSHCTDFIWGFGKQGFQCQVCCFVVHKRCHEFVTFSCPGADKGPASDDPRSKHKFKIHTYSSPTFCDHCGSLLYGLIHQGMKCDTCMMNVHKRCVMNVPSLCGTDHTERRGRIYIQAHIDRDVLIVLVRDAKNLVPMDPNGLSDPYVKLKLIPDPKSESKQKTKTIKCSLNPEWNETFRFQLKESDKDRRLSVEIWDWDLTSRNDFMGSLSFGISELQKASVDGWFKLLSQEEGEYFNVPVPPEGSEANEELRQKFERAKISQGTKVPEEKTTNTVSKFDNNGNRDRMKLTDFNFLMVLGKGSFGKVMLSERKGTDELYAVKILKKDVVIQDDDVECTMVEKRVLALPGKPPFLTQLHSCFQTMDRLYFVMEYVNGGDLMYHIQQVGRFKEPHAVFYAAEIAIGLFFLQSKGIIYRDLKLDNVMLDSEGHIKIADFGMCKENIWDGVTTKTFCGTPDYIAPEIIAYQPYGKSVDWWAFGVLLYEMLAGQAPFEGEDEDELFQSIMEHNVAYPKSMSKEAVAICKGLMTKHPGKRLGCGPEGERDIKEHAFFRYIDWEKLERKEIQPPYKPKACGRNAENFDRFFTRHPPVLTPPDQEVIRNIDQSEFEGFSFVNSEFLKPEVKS

[6] = target: T3, PKC-ι in extracts of human cell lines; assay: Western-blot competition, cell extracts: PRE at 10X/20X the anti-PKC iota primary antibody concentration competes with that antibody; band densitometry (lower band = PRE bound); remark: listed apart in the source
[7] = target: T5, PKC-ζ in extracts of human cell lines (human, UniProt Q05513 1-592); assay: Western-blot competition, cell extracts: PRE at 10X/20X the anti-PKC zeta primary antibody concentration competes with that antibody; band densitometry (lower band = PRE bound)
T5 construct: Denatured on the Western blot membrane; also called PKC-zeta (cell extract)
T5 sequence (looked up): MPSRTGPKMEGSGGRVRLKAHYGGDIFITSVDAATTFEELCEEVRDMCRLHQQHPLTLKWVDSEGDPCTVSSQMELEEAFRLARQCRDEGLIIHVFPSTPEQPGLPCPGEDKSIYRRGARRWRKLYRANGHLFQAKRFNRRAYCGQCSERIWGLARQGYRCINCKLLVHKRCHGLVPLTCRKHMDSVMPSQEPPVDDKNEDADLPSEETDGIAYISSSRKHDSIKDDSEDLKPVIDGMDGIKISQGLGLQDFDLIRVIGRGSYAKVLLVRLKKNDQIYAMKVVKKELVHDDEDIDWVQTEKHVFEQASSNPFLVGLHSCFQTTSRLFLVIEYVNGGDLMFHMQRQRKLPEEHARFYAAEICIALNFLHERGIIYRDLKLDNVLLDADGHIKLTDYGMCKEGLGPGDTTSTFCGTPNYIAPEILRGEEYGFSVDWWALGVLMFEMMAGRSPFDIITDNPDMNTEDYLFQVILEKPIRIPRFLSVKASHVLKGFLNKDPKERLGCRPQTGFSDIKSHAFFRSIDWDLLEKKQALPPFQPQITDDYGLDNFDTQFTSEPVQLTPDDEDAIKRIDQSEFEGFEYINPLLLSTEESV

PKC-βI, purified isoform = target: T6, PKC-βI, purified isoform (UniProt P05771-1 1-671); assay: purified isoform competition ELISA, summary grade
T6 construct: also called PKC-beta I; beta 1
T6 sequence (P05771 whole entry, canonical isoform): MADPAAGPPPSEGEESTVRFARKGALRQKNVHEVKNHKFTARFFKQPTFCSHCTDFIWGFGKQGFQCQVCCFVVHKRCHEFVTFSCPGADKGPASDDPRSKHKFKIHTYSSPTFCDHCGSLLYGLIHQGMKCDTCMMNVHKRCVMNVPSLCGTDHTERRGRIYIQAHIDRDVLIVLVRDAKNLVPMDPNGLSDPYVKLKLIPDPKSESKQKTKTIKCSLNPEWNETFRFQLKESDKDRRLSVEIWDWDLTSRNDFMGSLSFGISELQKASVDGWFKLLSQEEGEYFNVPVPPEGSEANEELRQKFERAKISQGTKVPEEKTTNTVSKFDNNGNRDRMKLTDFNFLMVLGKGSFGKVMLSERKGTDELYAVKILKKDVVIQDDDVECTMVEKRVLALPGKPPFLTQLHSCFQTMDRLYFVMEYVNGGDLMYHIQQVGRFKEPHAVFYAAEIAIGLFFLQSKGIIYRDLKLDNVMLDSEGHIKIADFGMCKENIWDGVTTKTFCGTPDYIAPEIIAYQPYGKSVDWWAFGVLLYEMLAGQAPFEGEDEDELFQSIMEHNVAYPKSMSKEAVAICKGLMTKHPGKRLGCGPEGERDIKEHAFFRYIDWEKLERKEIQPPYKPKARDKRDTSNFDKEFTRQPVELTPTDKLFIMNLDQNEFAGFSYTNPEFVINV

PKC-ε, purified isoform [8] = target: T2, PKC-ε, purified isoform; assay: purified isoform competition ELISA, summary grade
[9] = target: T3, PKC-ι in extracts of human cell lines; assay: Western-blot competition, cell extracts: PRE at 10X/20X the anti-PKC iota primary antibody concentration competes with that antibody; band densitometry (lower band = PRE bound); remark: listed apart in the source
[10] = target: T5, PKC-ζ in extracts of human cell lines; assay: Western-blot competition, cell extracts: PRE at 10X/20X the anti-PKC zeta primary antibody concentration competes with that antibody; band densitometry (lower band = PRE bound); remark: listed apart in the source
[11] = target: T7, PKC-βI in extracts of human cell lines (human, UniProt P05771-1 2-671); assay: Western-blot competition, cell extracts: PRE at 10X/20X the anti-PKC beta I primary antibody concentration competes with that antibody; band densitometry (lower band = PRE bound)
T7 construct: Denatured on the Western blot membrane; beta I splice form; also called PKC-beta I (cell extract)
T7 sequence (P05771 2-671 limits assumed): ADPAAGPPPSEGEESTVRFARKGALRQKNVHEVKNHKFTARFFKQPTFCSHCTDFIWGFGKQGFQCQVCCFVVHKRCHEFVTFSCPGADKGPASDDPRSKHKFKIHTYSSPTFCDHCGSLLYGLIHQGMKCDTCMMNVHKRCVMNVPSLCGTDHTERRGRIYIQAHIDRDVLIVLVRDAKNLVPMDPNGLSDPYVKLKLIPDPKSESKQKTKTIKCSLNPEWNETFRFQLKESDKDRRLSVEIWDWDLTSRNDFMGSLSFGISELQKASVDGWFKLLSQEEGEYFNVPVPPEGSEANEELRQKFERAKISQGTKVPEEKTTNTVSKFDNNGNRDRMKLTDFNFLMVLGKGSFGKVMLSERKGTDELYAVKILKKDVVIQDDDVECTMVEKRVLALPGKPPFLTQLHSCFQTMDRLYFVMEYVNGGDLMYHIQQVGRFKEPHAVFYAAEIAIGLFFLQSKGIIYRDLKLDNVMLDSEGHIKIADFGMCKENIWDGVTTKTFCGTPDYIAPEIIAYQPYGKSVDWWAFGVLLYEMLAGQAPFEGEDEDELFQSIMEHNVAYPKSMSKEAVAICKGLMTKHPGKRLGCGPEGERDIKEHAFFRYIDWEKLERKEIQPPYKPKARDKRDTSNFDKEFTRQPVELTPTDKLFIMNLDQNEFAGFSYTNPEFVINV

[12] = target: T8, PKC-ε in extracts of human cell lines (human, UniProt Q02156 1-737); assay: Western-blot competition, cell extracts: PRE at 10X/20X the anti-PKC epsilon primary antibody concentration competes with that antibody; band densitometry (lower band = PRE bound)
T8 construct: Denatured on the Western blot membrane; also called PKC-epsilon (cell extract)
T8 sequence (looked up): T1 sequence (looked up)

[13] = target: T5, PKC-ζ in extracts of human cell lines; assay: Western-blot competition, cell extracts: PRE at 10X/20X the anti-PKC zeta primary antibody concentration competes with that antibody; band densitometry (lower band = PRE bound); remark: listed apart in the source
[14] = target: T3, PKC-ι in extracts of human cell lines; assay: Western-blot competition, cell extracts: PRE at 10X/20X the anti-PKC iota primary antibody concentration competes with that antibody; band densitometry (lower band = PRE bound); remark: listed apart in the source
[15] = target: T5, PKC-ζ in extracts of human cell lines; assay: Western-blot competition, cell extracts: PRE at 10X/20X the anti-PKC zeta primary antibody concentration competes with that antibody; band densitometry (lower band = PRE bound); remark: listed apart in the source
[16] = target: T3, PKC-ι in extracts of human cell lines; assay: Western-blot competition, cell extracts: PRE at 10X/20X the anti-PKC iota primary antibody concentration competes with that antibody; band densitometry (lower band = PRE bound); remark: listed apart in the source
[17] = target: T3, PKC-ι in extracts of human cell lines; assay: as above; remark: listed apart in the source
[18] = target: T5, PKC-ζ in extracts of human cell lines; assay: Western-blot competition, cell extracts: PRE at 10X/20X the anti-PKC zeta primary antibody concentration competes with that antibody; band densitometry (lower band = PRE bound); remark: listed apart in the source

Chain of PKC-βI (P05771 whole entry): as the sequence (P05771 whole entry, canonical isoform) above

B1: Compound TIM 18 (PRE 3 and PKI 4) (peptide)
chain: Ac-FRRCFRLGGGGGGGAKGIQEVKGGDAQNLIGISI-NH2
With B1 the “% Inhibition of kinase activity (Kinase-Glo), compound at 5.0 µM” value (from here on “% Inhibition of kinase activity … at 5.0 µM”) (PKC-α) was 100%, the “% Inhibition of kinase activity (Kinase-Glo), compound at 30.0 µM” value (“% Inhibition of kinase activity … at 30.0 µM” below) (PKC-α) was 100% and the “% Inhibition of kinase activity … at 5.0 µM” value (PKC-βI) was 76.3%. For the same binder, the “% Inhibition of kinase activity … at 30.0 µM” value (PKC-βI) was 76.1%, the “% Inhibition of kinase activity … at 5.0 µM” value (PKC-ε) was -28% and the “% Inhibition of kinase activity … at 30.0 µM” value (PKC-ε) was 1%.

B2: Compound TIM 20 (PRE 1 and PKI 4) (peptide)
chain: Ac-FRRCFRLGGGGGGGRRKKGGKDFVVKR-NH2
For B2, the “% Inhibition of kinase activity … at 5.0 µM” value (PKC-α) was 19.8%, the “% Inhibition of kinase activity … at 30.0 µM” value (PKC-α) was 0% and the “% Inhibition of kinase activity … at 5.0 µM” value (PKC-βI) was 6.7%. The “% Inhibition of kinase activity … at 30.0 µM” value (PKC-βI) was 15.1%, the “% Inhibition of kinase activity … at 5.0 µM” value (PKC-ε) was -9% and the “% Inhibition of kinase activity … at 30.0 µM” value (PKC-ε) was -29%.

B3: PRE 3 (peptide)
peptide: Ac-AKGIQEVKGGDAQNLIGISI-NH2
notes: also called peptide recognition element 3
B3 showed a relative binding capacity (PKC-ε, purified isoform [1]) of 34%, a relative binding capacity (PKC-ε, purified isoform [2]) of 31.5% and a relative binding capacity (PKC-ε, purified isoform [3]) of 31%. B3: binds [4].

B4: PRE 1 (peptide)
peptide: RRKKGGKDFVVKR
notes: also called peptide recognition element 1
B4: no binding [5]; no binding (tested: 20X the primary antibody concentration) [6]; binds [7].

B5: PRE 13 (peptide)
peptide: Ac-RDAQNLI-NH2
notes: Ac-RDAQNLI-NH2; also called peptide recognition element 13
B5: no binding (PKC-βI, purified isoform); no binding [5]; no binding (PKC-ε, purified isoform [8]). For the same binder, the relative binding capacity (PKC-ε, purified isoform [1]) was 0%, the relative binding capacity (PKC-ε, purified isoform [2]) was 0% and the relative binding capacity (PKC-ε, purified isoform [3]) was 0.85%. B5: no binding (tested: 20X the primary antibody concentration) [9]; no binding (tested: 20X the primary antibody concentration) [10]; no binding (tested: 20X the primary antibody concentration) [11]. B5: no binding (tested: 20X the primary antibody concentration) [12].

B6: PRE 5 (peptide)
peptide: Ac-AKGIQEVKGGKDAQNLIGISI-NH2
notes: also called peptide recognition element 5
B6: binds [13].

B7: PRE 4 (peptide)
peptide: Ac-KDAQNLIGISI-NH2
notes: also called peptide recognition element 4
B7: binds [14].

B8: PRE 11 (peptide)
peptide: Ac-RDAQNLIGISI-NH2
notes: also called peptide recognition element 11
For B8, the relative binding capacity (PKC-ε, purified isoform [1]) was 2.25%, the relative binding capacity (PKC-ε, purified isoform [2]) was 13% and the relative binding capacity (PKC-ε, purified isoform [3]) was 9.84%. B8: no binding (tested: 20X the primary antibody concentration) [15].

B9: PRE 7 (peptide)
peptide: Ac-ISIGILQNADK-NH2
notes: also called peptide recognition element 7
In the case of B9, the relative binding capacity (PKC-ε, purified isoform [1]) is reported as 8.04%, the relative binding capacity (PKC-ε, purified isoform [2]) is reported as 14% and the relative binding capacity (PKC-ε, purified isoform [3]) is reported as 3.78%. B9: no binding (tested: 20X the primary antibody concentration) [16].

B10: PRE 6 (peptide)
peptide: Ac-KDANQLIGISI-NH2
notes: also called peptide recognition element 6
B10: no binding [5]; no binding (tested: 20X the primary antibody concentration) [17]; no binding (tested: 20X the primary antibody concentration) [18].

B11: PRE 8 (peptide)
peptide: ILEDKGGDAQNLIGISI
notes: also called peptide recognition element 8
B11: no binding (PKC-βI, purified isoform).
